Results on three molecules are retold here after article PMC5626966, “Molecular and Physiological Logics of the Pyruvate-Induced Response of a Novel Transporter in Bacillus subtilis” (mBio, 2017).

For series [1], the target named is T1, PftAB (YsbAB) pyruvate-facilitated transporter (Bacillus subtilis, UniProt P94515+P94516).
T1 construct: gene lrgA; full-length untagged pftAB in B. subtilis cells (WT, delta-pftAB, IPTG-inducible Phs-pftAB strains)
The series can be described thus: transport in growing cells, extracellular pyruvate by HPLC, fit of facilitated transport model. It counts as cell-based. The note with it: B. subtilis cells, M9 minimal medium; model estimate of facilitated transport (Text S1, Table S2).

Series [2] has as its target T2, LytT (His6-LytT) (Bacillus subtilis (168?)) (UniProt P94514).
T2 sequence: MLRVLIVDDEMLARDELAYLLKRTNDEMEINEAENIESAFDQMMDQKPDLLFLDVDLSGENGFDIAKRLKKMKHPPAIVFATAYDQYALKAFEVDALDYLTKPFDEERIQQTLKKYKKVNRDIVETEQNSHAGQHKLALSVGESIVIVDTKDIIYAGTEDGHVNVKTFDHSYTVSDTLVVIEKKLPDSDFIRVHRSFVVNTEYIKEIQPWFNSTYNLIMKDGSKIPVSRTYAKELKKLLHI
The series can be described thus: EMSA. The note with it: EMSA: LytT with 50 ng DNA and 50 µg/ml poly(dI-dC); CcpA with 10 ng DNA and 400 µg/ml salmon sperm DNA; 6% or 8% native acrylamide gel in TAE; binding buffer …. A general note: A gel shift assay detects complexes by their altered migration in electrophoresis.

T1 sequence (P94515 whole entry): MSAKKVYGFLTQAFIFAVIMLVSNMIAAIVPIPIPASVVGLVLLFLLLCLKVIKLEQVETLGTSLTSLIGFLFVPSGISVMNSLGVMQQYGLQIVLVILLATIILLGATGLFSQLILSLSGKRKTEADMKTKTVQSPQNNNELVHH
T1 sequence (P94516 whole entry): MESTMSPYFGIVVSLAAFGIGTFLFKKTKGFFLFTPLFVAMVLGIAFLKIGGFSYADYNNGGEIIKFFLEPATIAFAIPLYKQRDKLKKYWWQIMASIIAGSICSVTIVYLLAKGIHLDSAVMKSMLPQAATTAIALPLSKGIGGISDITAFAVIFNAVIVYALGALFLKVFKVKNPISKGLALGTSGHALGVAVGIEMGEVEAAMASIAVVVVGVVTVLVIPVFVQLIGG

As to `CC(=O)C(=O)O` [pyruvate], the “Km (apparent affinity constant)” value in series [1] is ~ 1.0 ± 0.1 mmol ⋅ liter^−1.

In the case of “CCATGGTTTAATTCAACGTATAATCTGATCATGAAAGACGGATCGAAAATACCGGTCAGCCGGACATATGCGAAGGAATTGAAAAAGCTGCTCCATATTTGATGGGCGGCTTTTTGCATTTCAGCCATTTGATTCTGCAACTCAGACCCGCTATACGGCATGTTATCTTGTAAGCGCTTTATAACAGGGAATTCTTATTTATAATGAGGGTACCAAAGAGAAAGAGGTGAAGAAAATGAGTGCTAAAAAAGTGTACG (double strand) [PpftAB 257 bp]”, the binding result in series [2] was “binds”.

For “CCATGGTTTAATTCAACGTATAATCTGATCATGAAAGACGGATCGAAAATACCGGTCAGCCGGACATATGCGAAGGAATTGAAAAAGCTGCTCCATATTTGATGGGCGGCTTTTTGCATTTCAGCCATTTGATTCTGCAACTCAGACCCGCTATACGGCATGTTATCTTGTAAGCGCTTTATAACAGGGAATTCTTATTTATAATGAGGGTACCAAAGAGAAAGAGGTGAAGAAAATGAGTGCTAAAAAAGTGTACG (double strand) [PpftAB reporter strain fragment 267 bp]”, the binding entry in series [2] was “binds”.
